Data published in IntAct's records for PubMed 20067578.

B1: Dual specificity mitogen-activated protein kinase kinase 6 (Homo sapiens), P52564 (parent)
chain: MSQSKGKKRNPGLKIPKEAFEQPQTSSTPPRDLDSKACISIGNQNFEVKADDLEPIMELGRGAYGVVEKMRHVPSGQIMAVKRIRATVNSQEQKRLLMDLDISMRTVDCPFTVTFYGALFREGDVWICMELMDTSLDKFYKQVIDKGQTIPEDILGKIAVSIVKALEHLHSKLSVIHRDVKPSNVLINALGQVKMCDFGISGYLVDSVAKTIDAGCKPYMAPERINPELNQKGYSVKSDIWSLGITMIELAILRFPYDSWGTPFQQLKQVVEEPSPQLPADKFSAEFVDFTSQCLKKNSKERPTYPELMQHPFFTLHESKGTDVASFVKLILGD

Variants of: B1
Settings: with lrrk2_human LRRK2, Q5S007
Sequence of lrrk2_human LRRK2, Q5S007 (Q5S007 whole entry): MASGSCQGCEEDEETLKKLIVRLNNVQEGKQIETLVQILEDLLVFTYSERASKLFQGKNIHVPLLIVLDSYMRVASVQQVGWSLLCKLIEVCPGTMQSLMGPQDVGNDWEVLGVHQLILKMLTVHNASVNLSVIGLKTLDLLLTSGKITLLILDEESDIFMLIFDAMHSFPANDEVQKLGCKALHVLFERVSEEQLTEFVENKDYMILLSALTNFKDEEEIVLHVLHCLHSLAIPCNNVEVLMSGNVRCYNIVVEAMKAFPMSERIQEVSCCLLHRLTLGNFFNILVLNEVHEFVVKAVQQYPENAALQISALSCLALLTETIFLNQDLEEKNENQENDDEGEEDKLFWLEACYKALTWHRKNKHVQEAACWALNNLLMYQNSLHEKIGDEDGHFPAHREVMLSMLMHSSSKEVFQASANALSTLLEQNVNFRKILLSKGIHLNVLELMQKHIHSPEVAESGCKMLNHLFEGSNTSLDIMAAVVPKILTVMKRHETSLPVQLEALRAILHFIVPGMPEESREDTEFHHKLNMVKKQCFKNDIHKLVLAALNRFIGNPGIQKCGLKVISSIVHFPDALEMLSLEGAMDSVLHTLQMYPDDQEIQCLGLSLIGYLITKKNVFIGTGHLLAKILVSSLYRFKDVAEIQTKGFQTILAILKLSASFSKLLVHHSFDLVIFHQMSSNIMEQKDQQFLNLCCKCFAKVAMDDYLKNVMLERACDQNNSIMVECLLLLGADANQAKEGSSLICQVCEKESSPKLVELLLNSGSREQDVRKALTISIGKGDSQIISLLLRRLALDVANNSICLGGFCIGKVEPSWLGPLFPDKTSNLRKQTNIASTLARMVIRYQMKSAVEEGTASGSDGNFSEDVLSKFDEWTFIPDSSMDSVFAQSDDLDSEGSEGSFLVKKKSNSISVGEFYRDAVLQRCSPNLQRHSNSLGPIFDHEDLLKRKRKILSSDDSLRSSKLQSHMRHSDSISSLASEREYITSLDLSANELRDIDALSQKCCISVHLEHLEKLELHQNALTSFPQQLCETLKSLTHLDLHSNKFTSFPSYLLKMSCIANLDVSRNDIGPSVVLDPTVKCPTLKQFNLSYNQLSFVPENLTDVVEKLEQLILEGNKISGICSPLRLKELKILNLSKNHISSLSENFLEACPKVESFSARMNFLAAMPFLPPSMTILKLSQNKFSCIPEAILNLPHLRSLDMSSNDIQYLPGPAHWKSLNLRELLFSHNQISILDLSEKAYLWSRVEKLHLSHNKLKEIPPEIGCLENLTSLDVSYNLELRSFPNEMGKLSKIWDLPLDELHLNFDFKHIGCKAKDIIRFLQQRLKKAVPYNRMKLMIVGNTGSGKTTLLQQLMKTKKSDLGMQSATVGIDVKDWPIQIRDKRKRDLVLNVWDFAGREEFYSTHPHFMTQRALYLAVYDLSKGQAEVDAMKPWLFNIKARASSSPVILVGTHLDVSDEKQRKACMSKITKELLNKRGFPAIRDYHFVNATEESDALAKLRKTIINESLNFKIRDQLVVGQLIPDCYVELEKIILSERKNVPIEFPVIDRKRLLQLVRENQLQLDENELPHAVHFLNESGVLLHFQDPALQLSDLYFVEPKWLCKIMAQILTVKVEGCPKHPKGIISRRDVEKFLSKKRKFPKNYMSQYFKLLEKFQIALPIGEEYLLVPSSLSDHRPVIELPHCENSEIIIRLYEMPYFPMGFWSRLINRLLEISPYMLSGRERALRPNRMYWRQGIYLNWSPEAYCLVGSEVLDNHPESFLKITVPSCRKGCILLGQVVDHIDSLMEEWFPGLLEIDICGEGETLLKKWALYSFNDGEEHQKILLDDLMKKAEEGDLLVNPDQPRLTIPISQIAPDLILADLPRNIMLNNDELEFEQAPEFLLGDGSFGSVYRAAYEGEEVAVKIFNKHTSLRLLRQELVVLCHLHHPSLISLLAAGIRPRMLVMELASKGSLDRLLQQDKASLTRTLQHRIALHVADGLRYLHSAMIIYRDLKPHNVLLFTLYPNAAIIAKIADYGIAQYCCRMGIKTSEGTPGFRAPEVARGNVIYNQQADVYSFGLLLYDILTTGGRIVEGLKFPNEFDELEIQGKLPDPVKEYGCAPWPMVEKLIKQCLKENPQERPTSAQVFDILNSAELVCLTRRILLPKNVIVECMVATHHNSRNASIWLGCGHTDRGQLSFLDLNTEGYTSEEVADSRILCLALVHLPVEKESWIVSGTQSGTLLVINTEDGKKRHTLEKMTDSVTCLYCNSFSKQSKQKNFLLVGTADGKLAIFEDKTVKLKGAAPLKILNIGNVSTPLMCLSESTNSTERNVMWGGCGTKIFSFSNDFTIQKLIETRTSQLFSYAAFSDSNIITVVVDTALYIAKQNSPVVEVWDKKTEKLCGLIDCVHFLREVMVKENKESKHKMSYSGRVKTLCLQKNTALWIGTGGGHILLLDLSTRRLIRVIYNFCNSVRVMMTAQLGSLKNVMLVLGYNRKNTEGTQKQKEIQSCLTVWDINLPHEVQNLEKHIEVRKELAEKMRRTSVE

effect of a mutation on the interaction	Variant
decreasing interaction	MSQSKGKKRNPGLKIPKEAFEQPQTSSTPPRDLDSKACISIGNQNFEVKADDLEPIMELGRGAYGVVEKMRHVPSGQIMAVARIRATVNSQEQKRLLMDLDISMRTVDCPFTVTFYGALFREGDVWICMELMDTSLDKFYKQVIDKGQTIPEDILGKIAVSIVKALEHLHSKLSVIHRDVKPSNVLINALGQVKMCDFGISGYLVDSVAKTIDAGCKPYMAPERINPELNQKGYSVKSDIWSLGITMIELAILRFPYDSWGTPFQQLKQVVEEPSPQLPADKFSAEFVDFTSQCLKKNSKERPTYPELMQHPFFTLHESKGTDVASFVKLILGD [K82A]
